Several values for one entry are separate records, joined by “and”; a condition that tells them apart may be missing. Identical values can stand only once.

For data set [1], the target named is His-tagged human NPM3 (human) (UniProt O75607). Nature of the data set: native gel or EMSA.
For data set [2] the target is unchanged. In words: native MS.
Data set [3] deals with the molecule itself. Nature of the data set: cross-linking.
Data set [4] has as its target His-tagged human NPM1 (human, UniProt P06748 1-294). In words: native gel or EMSA. In general terms: In EMSA bound probe runs differently from free probe, usually more slowly.

Chain of His-tagged human NPM1 (P06748 whole entry): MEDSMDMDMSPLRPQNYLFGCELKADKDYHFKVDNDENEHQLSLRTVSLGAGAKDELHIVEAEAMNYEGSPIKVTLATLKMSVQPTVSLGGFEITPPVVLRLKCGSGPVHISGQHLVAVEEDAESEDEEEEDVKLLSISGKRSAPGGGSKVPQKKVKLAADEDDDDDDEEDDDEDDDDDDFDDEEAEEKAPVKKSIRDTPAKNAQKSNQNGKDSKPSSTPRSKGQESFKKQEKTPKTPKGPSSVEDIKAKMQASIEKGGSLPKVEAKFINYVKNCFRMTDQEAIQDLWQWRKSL

As for “His-tagged human NPM3 (from UniProt O75607 1-178) (natural protein)”, the stoichiometry N in data set [1] and in data set [2] was 2 in each case.

B1: His-tagged human NPM2 (natural protein)
chain: MNLSSASSTEEKAVTTVLWGCELSQERRTWTFRPQLEGKQSCRLLLHTICLGEKAKEEMHRVEILPPANQEDKKMQPVTIASLQASVLPMVSMVGVQLSPPVTFQLRAGSGPVFLSGQERYEASDLTWEEEEEEEGEEEEEEEEDDEDEDADISLEEQSPVKQVKRLVPQKQASVAKKKKLEKEEEEIRASVRDKSPVKKAKATARAKKPGFKK
Take B1: in data set [3], the “stoichiometry N” value was 5 and 10.

B2: His-tagged human NPM3 (natural protein)
chain: MAAGTAAALAFLSQESRTRAGGVGGLRVPAPVTMDSFFFGCELSGHTRSFTFKVEEEDDAEHVLALTMLCLTEGAKDECNVVEVVARNHDHQEIAVPVANLKLSCQPMLSLDDFQLQPPVTFRLKSGSGPVRITGRHQIVTMSNDVSEEESEEEEEDSDEEEVELCPILPAKKQGGRP
Turning to B2, the “stoichiometry N” value in data set [4] was 4 NPM1 per NPM3 (NPM1:NPM3 4:1).

Values taken from publication PMC3367197 (Nucleic Acids Research, 2012).
